Experimental data published in patent US20250011468A1 (Novo Nordisk, published 2025).
Positions count from the first letter of the chain named.

B1: mAb4-6934 (monovalent one-armed variant of mAb1-6723) (antibody, V domains shown)
VH: EVQLVQSGAEVKKPGESLRISCKGSGYSFTTSWIVWVRQMPGKGLEWMGMIDPSDSFTSYSPSFQGHVTISADKSISTAYLQWSSLKASDTAMYYCARLHYYHSEEFDVWGQGTLVTVSS
VL: EIVLTQSPGTLSLSPGERATLSCRASQSVSSSYLAWYQQKPGQAPRLLIYGASSRARGIPDRFSGSGSGTDFTLTISRLEPEDFAVYYCQQFGSSRLFTFGQGTKLEIK
notes: also called monovalent mAb1-6723
B2: mAb1-4861 (antibody, V domains shown)
VH: EVQLVESGGGLVQPGRSLKLSCAASGFTFDDYAMHWVRQVPGKGLEWVSGISWNGDNIGYVDSVKGRFTISRDNAKNSLYLQLNSLRAEDTALYYCVKSYGSGSFYNAFDSWGQGTLVTVSS
VL: DIQMTQSPSTLSASAGDRVTITCRASQSISSWLAWYQQKPGKAPKFLIYKASRLERGVPSRFSGSGSGTEFSLTISSLQPDDFATYYCLEYSSYIRTFGQGTKVEIK
B3: mAb1-4071 (antibody, V domains shown)
VH: EVQLVQSGAEVKKPGESLRISCKGSGYSFTPYWIGWVRQMPGKGLEWMGMIDPSDSYTDYGPSFRGHVTISADKSISTAYLQWSSLKASDTAMYYCARVRIREGAFDIWGQGTMVTVSS
VL: DIVMTQSPLSLPVTPGEPASISCRSSQRLLHSTGYNYLNWYLQKPGQSPQLLIYLGSRRASGVPDRFSGSGSGTDFTLKISRVEAEDVGVYYCMQALHIPYTFGQGTKLEIK
B4: mAb1-4624 (antibody, V domains shown)
VH: B3 VH with S28R, P31S, S54T, R102M, E103S
VL: B3 VL with R28S, G34W, R58N, A96V

Legend:
desGla-desEGF1-FX T116A = desGla-desEGF1-FX T116A (human, UniProt P00742 126-488); assay: SPR (Biacore T200), antibody captured by anti-hIgG Fc, FX variant injected; % of wild-type binding
desGla-desEGF1-FX A118S = desGla-desEGF1-FX A118S (human, UniProt P00742 126-488); assay: as above
desGla-desEGF1-FX T127A = desGla-desEGF1-FX T127A (human, UniProt P00742 126-488); assay: as above
desGla-desEGF1-FX S227A = desGla-desEGF1-FX S227A (human, UniProt P00742 126-488); assay: as above
desGla-desEGF1-FX E228A = desGla-desEGF1-FX E228A (human, UniProt P00742 126-488); assay: as above
desGla-desEGF1-FX F229A = desGla-desEGF1-FX F229A (human, UniProt P00742 126-488); assay: as above
desGla-desEGF1-FX E266A = desGla-desEGF1-FX E266A (human, UniProt P00742 126-488); assay: as above
desGla-desEGF1-FX R287A = desGla-desEGF1-FX R287A (human, UniProt P00742 126-488); assay: as above
desGla-desEGF1-FX E305A = desGla-desEGF1-FX E305A (human, UniProt P00742 126-488); assay: as above
desGla-desEGF1-FX L419A = desGla-desEGF1-FX L419A (human, UniProt P00742 126-488); assay: as above
desGla-desEGF1-FX K420A = desGla-desEGF1-FX K420A (human, UniProt P00742 126-488); assay: as above
desGla-desEGF1-FX T428A = desGla-desEGF1-FX T428A (human, UniProt P00742 126-488); assay: as above
[1] = biological target: T1, wild-type desGla-desEGF1-FX (human, UniProt P00742 126-488); assay: as above
T1 construct: Expressed in HEK293; also called WT; desGLA-desEGF1-hFX

desGla-desEGF1-FX H101A = desGla-desEGF1-FX H101A (human, UniProt P00742 126-488); assay: as above
desGla-desEGF1-FX E103A = desGla-desEGF1-FX E103A (human, UniProt P00742 126-488); assay: as above
desGla-desEGF1-FX R113A = desGla-desEGF1-FX R113A (human, UniProt P00742 126-488); assay: as above
desGla-desEGF1-FX Y230A = desGla-desEGF1-FX Y230A (human, UniProt P00742 126-488); assay: SPR (Biacore T200), antibody captured by anti-hIgG Fc, FX variant injected (10 µM); % of wild-type binding
Procedure: Identification of hot-spot epitope residues was done using a Biacore T200 instrument at 25° C. Anti-hIgG Fc antibody from the Human Antibody Capture Kit (GE Healthcare, Catalogue #BR100839) at 2 μg/ml was immobilized on a Series S Sensor Chip CM5 (GE Healthcare, Catalogue #BR100530) using standard amine coupling chemistry. The anti-FX antibody mAb4-6934 (monovalent variant of mAb1-6723) was injected at the flow rate of 5 μL/min for 30 sec and captured by the immobilized anti-hIgG Fc antibody. […] Binding data were analyzed using steady-state fitting according to the 1:1 model in the Biacore Evaluation Software 2.0 supplied by GE Healthcare. Binding data are reported as % binding of FX variants to the anti-FX antibody (monovalent mAb1-6723) relative to binding of the wild-type FX to the anti-FX antibody at 5 or 10 μM FX variants injected and are calculated according to the formula: […]

[2] = biological target: T2, human plasma-derived FIXa (Haematologic Technologies Inc) (human, UniProt P00740 47-191; P00740 227-461); assay: cell-based or functional assay
[3] = biological target: T2, human plasma-derived FIXa (Haematologic …); assay: cell-based or functional assay; remark: listed apart in the source

T2 sequence (P00740 47-191, chain 1 of 2): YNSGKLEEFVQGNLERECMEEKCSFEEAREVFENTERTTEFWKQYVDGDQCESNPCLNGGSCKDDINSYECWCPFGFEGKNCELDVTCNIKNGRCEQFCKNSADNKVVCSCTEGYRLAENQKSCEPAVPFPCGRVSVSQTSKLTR
T2 sequence (P00740 227-461, chain 2 of 2): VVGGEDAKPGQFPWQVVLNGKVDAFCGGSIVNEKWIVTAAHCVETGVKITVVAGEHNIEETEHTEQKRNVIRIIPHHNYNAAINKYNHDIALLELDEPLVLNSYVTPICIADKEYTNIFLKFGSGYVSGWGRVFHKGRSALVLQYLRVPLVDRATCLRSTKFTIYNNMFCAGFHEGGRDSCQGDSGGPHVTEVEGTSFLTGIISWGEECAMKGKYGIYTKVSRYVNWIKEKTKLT
Chain of desGla-desEGF1-FX E228A (P00742 other isoform, or with tags, fused parts or gaps E228A E228A): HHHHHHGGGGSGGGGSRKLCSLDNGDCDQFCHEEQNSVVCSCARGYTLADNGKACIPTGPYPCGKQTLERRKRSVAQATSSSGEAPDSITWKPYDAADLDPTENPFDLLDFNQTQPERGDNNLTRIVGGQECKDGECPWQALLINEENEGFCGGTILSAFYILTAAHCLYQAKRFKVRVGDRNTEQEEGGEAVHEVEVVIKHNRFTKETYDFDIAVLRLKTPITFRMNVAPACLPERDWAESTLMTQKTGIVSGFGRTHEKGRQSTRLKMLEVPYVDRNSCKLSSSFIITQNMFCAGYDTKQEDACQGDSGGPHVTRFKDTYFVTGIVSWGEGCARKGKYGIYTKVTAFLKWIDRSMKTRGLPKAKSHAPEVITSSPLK
Chain of desGla-desEGF1-FX E103A (P00742 other isoform, or with tags, fused parts or gaps E103A E103A): as the sequence (P00742 other isoform, or with tags, fused parts or gaps E228A E228A) above, with E34A, A159E counted along it
Chain of desGla-desEGF1-FX Y230A (P00742 other isoform, or with tags, fused parts or gaps Y230A Y230A): as the sequence (P00742 other isoform, or with tags, fused parts or gaps E228A E228A) above, with A159E, Y161A counted along it
Chain of desGla-desEGF1-FX E266A (P00742 other isoform, or with tags, fused parts or gaps E266A E266A): as the sequence (P00742 other isoform, or with tags, fused parts or gaps E228A E228A) above, with A159E, E197A counted along it
Chain of desGla-desEGF1-FX K420A (P00742 other isoform, or with tags, fused parts or gaps K420A K420A): as the sequence (P00742 other isoform, or with tags, fused parts or gaps E228A E228A) above, with A159E, K351A counted along it
Chain of desGla-desEGF1-FX E305A (P00742 other isoform, or with tags, fused parts or gaps E305A E305A): as the sequence (P00742 other isoform, or with tags, fused parts or gaps E228A E228A) above, with A159E, E236A counted along it
Chain of desGla-desEGF1-FX R287A (P00742 other isoform, or with tags, fused parts or gaps R287A R287A): as the sequence (P00742 other isoform, or with tags, fused parts or gaps E228A E228A) above, with A159E, R218A counted along it
Chain of desGla-desEGF1-FX T116A (P00742 other isoform, or with tags, fused parts or gaps T116A T116A): as the sequence (P00742 other isoform, or with tags, fused parts or gaps E228A E228A) above, with T47A, A159E counted along it
Chain of desGla-desEGF1-FX H101A (P00742 other isoform, or with tags, fused parts or gaps H101A H101A): as the sequence (P00742 other isoform, or with tags, fused parts or gaps E228A E228A) above, with H32A, A159E counted along it
Chain of desGla-desEGF1-FX S227A (P00742 other isoform, or with tags, fused parts or gaps S227A S227A): as the sequence (P00742 other isoform, or with tags, fused parts or gaps E228A E228A) above, with S158A, A159E counted along it
Chain of desGla-desEGF1-FX T428A (P00742 other isoform, or with tags, fused parts or gaps T428A T428A): as the sequence (P00742 other isoform, or with tags, fused parts or gaps E228A E228A) above, with A159E, T359A counted along it
Chain of desGla-desEGF1-FX F229A (P00742 other isoform, or with tags, fused parts or gaps F229A F229A): as the sequence (P00742 other isoform, or with tags, fused parts or gaps E228A E228A) above, with A159E, F160A counted along it
Chain of desGla-desEGF1-FX R113A (P00742 other isoform, or with tags, fused parts or gaps R113A R113A): as the sequence (P00742 other isoform, or with tags, fused parts or gaps E228A E228A) above, with R44A, A159E counted along it
Chain of desGla-desEGF1-FX L419A (P00742 other isoform, or with tags, fused parts or gaps L419A L419A): as the sequence (P00742 other isoform, or with tags, fused parts or gaps E228A E228A) above, with A159E, L350A counted along it
Chain of desGla-desEGF1-FX A118S (P00742 other isoform, or with tags, fused parts or gaps A118S A118S): as the sequence (P00742 other isoform, or with tags, fused parts or gaps E228A E228A) above, with A49S, A159E counted along it
T1 sequence (P00742 other isoform, or with tags, fused parts or gaps): as the sequence (P00742 other isoform, or with tags, fused parts or gaps E228A E228A) above, with A159E counted along it
Chain of desGla-desEGF1-FX T127A (P00742 other isoform, or with tags, fused parts or gaps T127A T127A): as the sequence (P00742 other isoform, or with tags, fused parts or gaps E228A E228A) above, with T58A, A159E counted along it

Binder | FXa generation rate at 3.2 nM mAb [2] [pM/min] | FXa generation rate at 6.3 nM mAb [2] [pM/min] | FXa generation rate at 12.5 nM mAb [2] [pM/min] | FXa generation rate at 25 nM mAb [2] [pM/min] | FXa generation rate at 50 nM mAb [2] [pM/min] | FXa generation rate at 100 nM mAb [2] [pM/min] | FXa generation rate at 200 nM mAb [2] [pM/min] | Peak stimulatory activity relative to 224F3 [3] | other results
B1 | – | – | – | – | – | – | – | – | Binding (%) relative to wild-type (desGla-desEGF1-FX T116A): 114%; Binding (%) relative to wild-type (desGla-desEGF1-FX A118S): 102%; Binding (%) relative to wild-type (desGla-desEGF1-FX T127A): 113%; Binding (%) relative to wild-type (desGla-desEGF1-FX S227A): 66%; Binding (%) relative to wild-type (desGla-desEGF1-FX E228A): 80%; Binding (%) relative to wild-type (desGla-desEGF1-FX F229A): 99%; Binding (%) relative to wild-type (desGla-desEGF1-FX E266A): 112%; Binding (%) relative to wild-type (desGla-desEGF1-FX R287A): 66%; Binding (%) relative to wild-type (desGla-desEGF1-FX E305A): 97%; Binding (%) relative to wild-type (desGla-desEGF1-FX L419A): 50%; Binding (%) relative to wild-type (desGla-desEGF1-FX K420A): 23%; Binding (%) relative to wild-type (desGla-desEGF1-FX T428A): 81%; Binding (%) relative to wild-type [1]: 100%; Binding (%) relative to wild-type (desGla-desEGF1-FX H101A): 51%; Binding (%) relative to wild-type (desGla-desEGF1-FX E103A): 71%; Binding (%) relative to wild-type (desGla-desEGF1-FX R113A): 28%; Binding (%) relative to wild-type (desGla-desEGF1-FX Y230A): 1%
B2 | 434 | 415 | 385 | 382 | 352 | 364 | 411 | 21.7 fold relative to 224F3 | –
B3 | 43 | 65 | 97 | 131 | 173 | 198 | 208 | 10.4 fold relative to 224F3 | –
B4 | 383 | 550 | 752 | 851 | 989 | 1000 | 960 | 50.1 fold relative to 224F3 | –
